Reference: patent publication US20200199241A1 (Chugai, published 2020)
Read-outs that look alike come from different tables or passages of the source.

T1: mouse FcγRIIb (mouse, UniProt P08101 30-207, limits assumed)
T1 construct: bought; also called mFcgRIIb; mFcgR IIb
T1 sequence (looked up): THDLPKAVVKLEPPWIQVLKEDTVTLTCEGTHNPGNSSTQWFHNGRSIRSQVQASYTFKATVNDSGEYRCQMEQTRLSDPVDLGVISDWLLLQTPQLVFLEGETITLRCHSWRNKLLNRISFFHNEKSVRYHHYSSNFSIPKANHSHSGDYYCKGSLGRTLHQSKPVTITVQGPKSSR

T2: mouse FcγRIII (mouse, UniProt P08508 31-215)
T2 construct: bought; also called mFcgRIII; mFcgR III
T2 sequence (looked up): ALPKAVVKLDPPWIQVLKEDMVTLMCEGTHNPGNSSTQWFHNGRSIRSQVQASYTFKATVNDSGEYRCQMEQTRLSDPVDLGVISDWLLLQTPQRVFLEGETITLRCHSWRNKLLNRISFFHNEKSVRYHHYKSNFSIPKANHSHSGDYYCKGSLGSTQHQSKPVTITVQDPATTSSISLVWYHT

T3: mouse FcγRIV (mouse, UniProt A0A0B4J1G0 21-203)
T3 construct: bought; also called mFcgRIV; mFcgR IV; the vendor's purification tag not given
T3 sequence: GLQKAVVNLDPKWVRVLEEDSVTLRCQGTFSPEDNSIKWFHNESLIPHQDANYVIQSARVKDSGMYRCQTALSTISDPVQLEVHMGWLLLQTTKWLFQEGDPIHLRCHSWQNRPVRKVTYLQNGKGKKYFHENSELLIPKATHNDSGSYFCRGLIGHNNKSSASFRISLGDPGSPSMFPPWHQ

T4: human FcγRIIb (human, UniProt P31994 43-217, limits assumed)
T4 construct: also called hFcgRIIb; FcγIIB
T4 sequence: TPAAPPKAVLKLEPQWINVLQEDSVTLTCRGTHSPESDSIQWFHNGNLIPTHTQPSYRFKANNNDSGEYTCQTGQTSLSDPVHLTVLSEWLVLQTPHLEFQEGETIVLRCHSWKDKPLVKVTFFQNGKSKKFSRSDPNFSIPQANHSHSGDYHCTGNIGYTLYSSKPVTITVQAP

T5: mouse FcγRI (mouse, UniProt P26151 25-297)
T5 construct: bought; also called mFcgRI; mFcgR 1
T5 sequence (looked up): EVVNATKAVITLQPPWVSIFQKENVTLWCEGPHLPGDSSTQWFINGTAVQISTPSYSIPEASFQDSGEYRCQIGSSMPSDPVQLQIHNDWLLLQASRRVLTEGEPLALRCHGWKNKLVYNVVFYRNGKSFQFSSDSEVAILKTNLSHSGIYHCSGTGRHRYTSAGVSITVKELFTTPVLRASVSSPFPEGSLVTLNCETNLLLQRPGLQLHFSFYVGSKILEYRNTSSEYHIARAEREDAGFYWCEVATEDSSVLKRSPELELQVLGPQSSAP


Assays:
[1] = target: T6, human FcRn (soluble human FcRn complexed with β2-microglobulin) (human, UniProt P61769 21-119, limits assumed); experiment: SPR, antibody captured by Protein L, human FcRn as analyte, pH 7.0, 25 C
T6 construct: also called hFcRn

[2] = target: T1, mouse FcγRIIb; experiment: SPR, antibody captured by Protein L, mouse FcγR as analyte, pH 7.4, 25 C
[3] = target: T2, mouse FcγRIII; experiment: as above
[4] = target: T3, mouse FcγRIV; experiment: as above
[5] = target: T6, human FcRn (soluble human FcRn …); experiment: SPR, antibody captured by Protein L, human FcRn as analyte, pH 7.0, 25 C; remark: listed apart in the source
[6] = target: T7, human FcγRIa (human, UniProt P12314 16-292, limits assumed); experiment: SPR, antibody captured by Protein L, human FcγR as analyte, pH 7.4, 25 C
T7 construct: also called hFcgRIa; hFcgRI

[7] = target: T6, human FcRn (soluble human FcRn …); experiment: SPR, antibody captured by Protein L, human FcRn as analyte, pH 7.0, 25 C; remark: listed apart in the source
[8] = target: T4, human FcγRIIb; experiment: SPR, antibody captured by Protein L, human FcγR as analyte, pH 7.4, 25 C
[9] = target: T7, human FcγRIa; experiment: as above; remark: listed apart in the source
[10] = target: T5, mouse FcγRI; experiment: SPR, antibody captured by Protein L, mouse FcγR as analyte, pH 7.4, 25 C

T6 sequence (chain, as listed by the source limits assumed, chain 1 of 2): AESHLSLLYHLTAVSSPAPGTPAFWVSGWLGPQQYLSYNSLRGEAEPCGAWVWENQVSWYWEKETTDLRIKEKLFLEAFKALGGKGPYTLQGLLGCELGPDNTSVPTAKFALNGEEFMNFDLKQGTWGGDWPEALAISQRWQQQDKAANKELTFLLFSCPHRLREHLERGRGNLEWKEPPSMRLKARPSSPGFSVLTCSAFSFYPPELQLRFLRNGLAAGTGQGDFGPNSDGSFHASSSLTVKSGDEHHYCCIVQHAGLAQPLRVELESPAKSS
T6 sequence (P61769 21-119 limits assumed, chain 2 of 2): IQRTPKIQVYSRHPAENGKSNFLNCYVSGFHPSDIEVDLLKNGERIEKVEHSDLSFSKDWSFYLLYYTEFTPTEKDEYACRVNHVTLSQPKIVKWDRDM
T7 sequence (P12314 16-292 limits assumed): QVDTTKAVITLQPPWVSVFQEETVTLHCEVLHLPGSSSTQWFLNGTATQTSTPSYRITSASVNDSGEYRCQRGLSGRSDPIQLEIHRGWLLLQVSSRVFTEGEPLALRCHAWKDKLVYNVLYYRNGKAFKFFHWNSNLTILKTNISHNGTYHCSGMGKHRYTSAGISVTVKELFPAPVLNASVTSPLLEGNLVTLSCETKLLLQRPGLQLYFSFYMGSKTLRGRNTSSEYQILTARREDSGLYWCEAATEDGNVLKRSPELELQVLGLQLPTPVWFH

Binder	Kd [1] [nM]	BINDING AMOUNT (RU) [2] [RU]	BINDING AMOUNT (RU) [3] [RU]	BINDING AMOUNT (RU) [4] [RU]	Kd [5] [nM]	BINDING AMOUNT (RU) [6] [RU]	Kd [7] [nM]	BINDING AMOUNT (RU) [8] [RU]	BINDING AMOUNT (RU) [9] [RU]	BINDING AMOUNT (RU) [10] [RU]
VH3/L(WT)-IgG1-F140 (VH3-IgG1-F140 heavy chain, L(WT)-CK light chain) (antibody, S239K/M252Y/V308P/N434Y; copies: 2 + 2) heavy: QVQLQESGPGLVKPSETLSLTCAVSGHSISHDHAWSWVRQPPGEGLEWIGFISYSGITNYNPSLQGRVTISRDNSKNTLYLQMNSLRAEDTAVYYCARSLARTTAMDYWGEGTLVTVSSASTKGPSVFPLAPSSKSTSGGTAALGCLVKDYFPEPVTVSWNSGALTSGVHTFPAVLQSSGLYSLSSVVTVPSSSLGTQTYICNVNHKPSNTKVDKKVEPKSCDKTHTCPPCPAPELLGGPKVFLFPPKPKDTLYISRTPEVTCVVVDVSHEDPEVKFNWYVDGVEVHNAKTKPREEQYNSTYRVVSVLTPLHQDWLNGKEYKCKVSNKALPAPIEKTISKAKGQPREPQVYTLPPSRDELTKNQVSLTCLVKGFYPSDIAVEWESNGQPENNYKTTPPVLDSDGSFFLYSKLTVDKSRWQQGNVFSCSVMHEALHYHYTQKSLSLSP light: not shown	36	-1.8	46.6	108	36	335	–	–	–	–
VH3/L(WT)-IgG1-F699 (antibody, name in EU numbering, copies: 2 + 2) heavy: QVQLQESGPGLVKPSETLSLTCAVSGHSISHDHAWSWVRQPPGEGLEWIGFISYSGITNYNPSLQGRVTISRDNSKNTLYLQMNSLRAEDTAVYYCARSLARTTAMDYWGEGTLVTVSSASTKGPSVFPLAPSSKSTSGGTAALGCLVKDYFPEPVTVSWNSGALTSGVHTFPAVLQSSGLYSLSSVVTVPSSSLGTQTYICNVNHKPSNTKVDKKVEPKSCDKTHTCPPCPAPELLGGPKVFLFPPKPKDTLYISRTPEVTCVVVDVSHEDPEVKFNWYVDGVEVHEAKTKPREEQYNSTYRVVSVLQVLHADWLNGKEYKCKVSNKALPAPIEKTISKAKGQPREPQVYTLPPSRDELTKNQVSLTCLVKGFYPSDIAVEWESNGQPENNYKTTPPVLDSDGSFFLYSKLTVDKSRWQQGNVFSCSVMHEALHYHYTQKSLSLSP light: not shown	–	–	–	–	–	–	23	-0.3	164	–
antibody with VH3-IgG1-F157 heavy chain and L(WT)-CK light chain (antibody, P257A/V308P/M428L/N434Y; also called 1gG1-F157; copies: 2 + 2) heavy: QVQLQESGPGLVKPSETLSLTCAVSGHSISHDHAWSWVRQPPGEGLEWIGFISYSGITNYNPSLQGRVTISRDNSKNTLYLQMNSLRAEDTAVYYCARSLARTTAMDYWGEGTLVTVSSASTKGPSVFPLAPSSKSTSGGTAALGCLVKDYFPEPVTVSWNSGALTSGVHTFPAVLQSSGLYSLSSVVTVPSSSLGTQTYICNVNHKPSNTKVDKKVEPKSCDKTHTCPPCPAPELLGGPSVFLFPPKPKDTLMISRTAEVTCVVVDVSHEDPEVKFNWYVDGVEVHNAKTKPREEQYNSTYRVVSVLTPLHQDWLNGKEYKCKVSNKALPAPIEKTISKAKGQPREPQVYTLPPSRDELTKNQVSLTCLVKGFYPSDIAVEWESNGQPENNYKTTPPVLDSDGSFFLYSKLTVDKSRWQQGNVFSCSVLHEALHYHYTQKSLSLSP light: not shown	150	129	276	243	–	–	–	–	–	315
